The results in this text go back to article PMC4104028 (2014).

The labels stand for the following.
B1: GFP-WIPI2b [not stated] / FLAG-Atg16L1 full-length (FL) [mouse] (parent complex)
chain 1: MNLASQSGEAGAGQLLFANFNQDNTSLAVGSKSGYKFFSLSSVDKLEQIYECTDTEDVCIVERLFSSSLVAIVSLKAPRKLKVCHFKKGTEICNYSYSNTILAVKLNRQRLIVCLEESLYIHNIRDMKVLHTIRETPPNPAGLCALSINNDNCYLAYPGSATIGEVQVFDTINLRAANMIPAHDSPLAALAFDASGTKLATASEKGTVIRVFSIPEGQKLFEFRRGVKRCVSICSLAFSMDGMFLSASSNTETVHIFKLETVKEKPPEEPTTWTGYFGKVLMASTSYLPSQVTEMFNQGRAFATVRLPFCGHKNICSLATIQKIPRLLVGAADGYLYMYNLDPQEGGECALMKQHRLDGSLETTNEILDSASHDCPLVTQTYGAAAGKGTYVPSSPTRLAYTDDLGAVGGACLEDEASALRLDEDSEHPPMILRTD
chain 2: MSSGLRAADFPRWKRHIAEELRRRDRLQRQAFEEIILQYTKLLEKSDLHSVLTQKLQAEKHDMPNRHEISPGHDGAWNDSQLQEMAQLRIKHQEELTELHKKRGELAQLVIDLNNQMQQKDKEIQMNEAKISEYLQTISDLETNCLDLRTKLQDLEVANQTLKDEYDALQITFTALEEKLRKTTEENQELVTRWMAEKAQEANRLNAENEKDSRRRQARLQKELAEAAKEPLPVEQDDDIEVIVDETSDHTEETSPVRAVSRAATKRLSQPAGGLLDSITNIFGLSESPLLGHHSSDAARRRSVSSIPVPQDIMDTHPASGKDVRVPTTASYVFDAHDGEVNAVQFSPGSRLLATGGMDRRVKLWEAFGDKCEFKGSLSGSNAGITSIEFDSAGAYLLAASNDFASRIWTVDDYRLRHTLTGHSGKVLSAKFLLDNARIVSGSHDRTLKLWDLRSKVCIKTVFAGSSCNDIVCTEQCVMSGHFDKKIRFWDIRSESVVREMELLGKITALDLNPERTELLSCSRDDLLKVIDLRTNAVKQTFSAPGFKCGSDWTRVVFSPDGSYVAAGSAEGSLYVWSVLTGKVEKVLSKQHSSSINAVAWAPSGLHVVSVDKGSRAVLWAQP
B2: FLAG-Atg16L1 full-length (FL) [mouse] / endogenous FIP200 (HEK293A) [human (endogenous in HEK293A)] (parent complex)
chain 1: B1 chain 2
chain 2: MKLYVFLVNTGTTLTFDTELTVQTVADLKHAIQSKYKIAIQHQVLVVNGGECMAADRRVCTYSAGTDTNPIFLFNKEMILCDRPPAIPKTTFSTENDMEIKVEESLMMPAVFHTVASRTQLALEMYEVAKKLCSFCEGLVHDEHLQHQGWAAIMANLEDCSNSYQKLLFKFESIYSNYLQSIEDIKLKLTHLGTAVSVMAKIPLLECLTRHSYRECLGRLDSLPEHEDSEKAEMKRSTELVLSPDMPRTTNESLLTSFPKSVEHVSPDTADAESGKEIRESCQSTVHQQDETTIDTKDGDLPFFNVSLLDWINVQDRPNDVESLVRKCFDSMSRLDPRIIRPFIAECRQTIAKLDNQNMKAIKGLEDRLYALDQMIASCGRLVNEQKELAQGFLANQKRAENLKDASVLPDLCLSHANQLMIMLQNHRKLLDIKQKCTTAKQELANNLHVRLKWCCFVMLHADQDGEKLQALLRLVIELLERVKIVEALSTVPQMYCLAVVEVVRRKMFIKHYREWAGALVKDGKRLYEAEKSKRESFGKLFRKSFLRNRLFRGLDSWPPSFCTQKPRKFDCELPDISLKDLQFLQSFCPSEVQPFLRVPLLCDFEPLHQHVLALHNLVKAAQSLDEMSQTITDLLSEQKASVSQTSPQSASSPRMESTAGITTTTSPRTPPPLTVQDPLCPAVCPLEELSPDSIDAHTFDFETIPHPNIEQTIHQVSLDLDSLAESPESDFMSAVNEFVIEENLSSPNPISDPQSPEMMVESLYSSVINAIDSRRMQDTNVCGKEDFGDHTSLNVQLERCRVVAQDSHFSIQTIKEDLCHFRTFVQKEQCDFSNSLKCTAVEIRNIIEKVKCSLEITLKEKHQKELLSLKNEYEGKLDGLIKETEENENKIKKLKGELVCLEEVLQNKDNEFALVKHEKEAVICLQNEKDQKLLEMENIMHSQNCEIKELKQSREIVLEDLKKLHVENDEKLQLLRAELQSLEQSHLKELEDTLQVRHIQEFEKVMTDHRVSLEELKKENQQIINQIQESHAEIIQEKEKQLQELKLKVSDLSDTRCKLEVELALKEAETDEIKILLEESRAQQKETLKSLLEQETENLRTEISKLNQKIQDNNENYQVGLAELRTLMTIEKDQCISELISRHEEESNILKAELNKVTSLHNQAFEIEKNLKEQIIELQSKLDSELSALERQKDEKITQQEEKYEAIIQNLEKDRQKLVSSQEQDREQLIQKLNCEKDEAIQTALKEFKLEREVVEKELLEKVKHLENQIAKSPAIDSTRGDSSSLVAELQEKLQEEKAKFLEQLEEQEKRKNEEMQNVRTSLIAEQQTNFNTVLTREKMRKENIINDLSDKLKSTMQQQERDKDLIESLSEDRARLLEEKKKLEEEVSKLRSSSFVPSPYVATAPELYGACAPELPGESDRSAVETADEGRVDSAMETSMMSVQENIHMLSEEKQRIMLLERTLQLKEEENKRLNQRLMSQSMSSVSSRHSEKIAIRDFQVGDLVLIILDERHDNYVLFTVSPTLYFLHSESLPALDLKPGEGASGASRRPWVLGKVMEKEYCQAKKAQNRFKVPLGTKFYRVKAVSWNKKV
B3: GFP-WIPI2b [not stated] / FLAG-Atg16L1 full-length (FL) [mouse] (parent complex)
chain 1: B1 chain 1
chain 2: B1 chain 2
B4: FLAG-Atg16L1 full-length (FL) [mouse] / GFP-WIPI2b [not stated] (parent complex)
chain 1: B1 chain 2
chain 2: B1 chain 1

Variants of B1 are the subject of one assay. The experiment in a line: GFP-Trap co-immunoprecipitation from mixed lysates, immunoblot quantification; parent: 2.5; read off a plot. Background: In western blotting, separated proteins are transferred to a membrane and probed.
On to chain 1 R108E, for which the response was approximately 0.04.

Turning to chain 1 R108E, chain 1 R125E, the response was approximately 0.03.

chain 1 R125E: the response is approximately 1.6.

Variants of B2 are the subject of the next assay. The experiment in a line: FLAG immunoprecipitation, immunoblot quantification; parent: 1; read off a plot.
Regarding chain 1 E230R, the ratio to parent was approximately 2.9.

As for chain 1 E226R, the ratio to parent is approximately 2.1.

chain 1 E235R: the ratio to parent was approximately 0.7.

As to chain 1 D239R, the ratio to parent was approximately 0.3.

For chain 1 D237R, the ratio to parent is approximately 0.45.

chain 1 E241R: the ratio to parent is approximately 0.25.

In the case of chain 1 D238R, the ratio to parent was approximately 0.42.

In the case of chain 1 D212R, the ratio to parent was approximately 1.2.

As for chain 1 E208R, the ratio to parent was approximately 1.3.

Another assay covers variants of B3. In words: GFP-Trap co-immunoprecipitation from mixed lysates, immunoblot quantification; parent: 2.5; read off a plot.
With chain 2 E230R, the response is approximately 0.62.

With chain 2 E226R, chain 2 E230R, the response is approximately 0.02.

chain 2 E226R: the response was approximately 0.33.

Variants of B4 are the subject of a further assay. The experiment in a line: GFP-Trap co-immunoprecipitation from mixed lysates, immunoblot quantification; parent: 1; read off a plot.
With chain 1 E241R, the ratio to parent was approximately 1.1.

As for chain 1 E226R, the ratio to parent was approximately 0.02.

chain 1 E208R: the ratio to parent is approximately 0.67.

In the case of chain 1 D237R, the ratio to parent is approximately 1.7.

As to chain 1 E235R, the ratio to parent is approximately 1.2.

As to chain 1 D239R, the ratio to parent was approximately 0.8.

Turning to chain 1 D238R, the ratio to parent was approximately 1.3.

In the case of chain 1 E230R, the ratio to parent was approximately 0.02.

As to chain 1 D212R, the ratio to parent is approximately 0.63.
